Results as given in patent US20200317802A1 (Merck KGaA, published 2020).
Blank lines part the entries; values can stand above or below the binder they belong to.

How the values were obtained:
[1] = target: T1, recombinant human ADAMTS5 (R&D Systems cat #2198-AD) (human, UniProt Q9UNA0 262-622, limits assumed); assay: binding ELISA, periplasmic extract on coated human ADAMTS5
T1 construct: bought protein
T1 sequence: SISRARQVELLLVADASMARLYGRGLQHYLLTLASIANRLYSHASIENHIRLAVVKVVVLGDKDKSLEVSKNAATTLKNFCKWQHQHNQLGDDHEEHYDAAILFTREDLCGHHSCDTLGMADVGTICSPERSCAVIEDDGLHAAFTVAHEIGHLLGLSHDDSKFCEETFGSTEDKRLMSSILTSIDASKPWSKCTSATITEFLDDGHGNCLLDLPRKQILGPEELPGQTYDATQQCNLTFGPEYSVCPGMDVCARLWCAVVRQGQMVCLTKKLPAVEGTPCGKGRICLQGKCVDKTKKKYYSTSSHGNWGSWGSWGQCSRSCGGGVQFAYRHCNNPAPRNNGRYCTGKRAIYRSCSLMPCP
Experimental: In a first step, periplasmic extracts were tested for binding to recombinant human ADAMTS5 by binding ELISA. In brief, recombinant human ADAMTS5 (R&D Systems, Minneapolis, US; cat #2198-AD) at a concentration of 1 μg/ml was coated on 384-well MaxiSorp plates (Nunc, Wiesbaden, Germany). Wells were blocked with a casein solution (1%). After addition of a 10-fold dilution of the periplasmic extracts, Nanobody binding was detected using a mouse anti-Flag-HRP conjugate (Sigma, St. Louis, US) and a subsequent enzymatic reaction in the presence of the substrate esTMB (3,3′,5,5′-tetramentylbenzidine) (SDT, Brussels, Belgium). Clones showing ELISA signals higher than the sum of the average signal of the irrelevant Nanobody controls and 3 times the standard deviation of the irrelevant Nanobody controls were considered to encode positive human ADAMTS5 binding Nanobodies.

[2] = target: T1, recombinant human ADAMTS5 (R&D Systems …); assay: cell-based or functional assay
[3] = target: T1, recombinant human ADAMTS5 (R&D Systems …); assay: cell-based or functional assay; remark: listed apart in the source

B1: Nanobody 2A02 (VHH)
VHH: EVQLVESGGGLVQPGGSLRLSCAASRRTFSSYVMAWFRQAPGKEREFVAAISRSGDSTYYYDSLEGRFTISRDNAKNTVHLQMNSLKPEDTAVYICAASRAPSFRTIDAINYYDYWGQGTLVTVSS
notes: tagged as tested (anti-Flag detection, IMAC); also called 02A02
binding ELISA (OD 450 nm) [1]: 1.65 OD 450 nm
Human AlphaLISA % inhibition [2]: 99%
Human AlphaLISA IC50 [2]: 4.3 nM
FRET assay % inh, periplasmic extract [3]: 91%
FRET assay vi (U/min), periplasmic extract [3]: 2 U/min

B3: Nanobody 2G01 (VHH)
VHH: EVQLVESGGGLVQAGGSLRLSCAASGRTTFSSYAMGWFRQAPGKERAFVATIWSGGLTVYADSAKGRFTISRDNAKNTVYLQMNSLRPEDTAVYYCAAEAVGTYYTPDGWTYWGQGTLVTVSS
notes: tagged as tested (anti-Flag detection, IMAC); also called 02G01
binding ELISA (OD 450 nm) [1]: 1.71 OD 450 nm
FRET assay % inh, periplasmic extract [3]: 55%
FRET assay vi (U/min), periplasmic extract [3]: 10 U/min

B4: Nanobody 2D12 (VHH)
VHH: EVQLVESGGGLVQAGDSLRLSCAASGRTFSTYFVGWFRQAPGKERDFVAAISRNGARTYYYDSVAGLFTISRDNAKNTVYLQMSSLKPEDTAVYYCAAARISPSDPSNEDGYDYWGQGTLVTVSS
notes: tagged as tested (anti-Flag detection, IMAC); also called 02D12
binding ELISA (OD 450 nm) [1]: 1.35 OD 450 nm
Human AlphaLISA % inhibition [2]: 100%
Human AlphaLISA IC50 [2]: 0.69 nM
FRET assay % inh, periplasmic extract [3]: 90%
FRET assay vi (U/min), periplasmic extract [3]: 2 U/min

B9: Nanobody 2C10 (VHH)
VHH: EVQLVESGGGLVQAGGSLRLSCATSGFTFSPYYMGWFRQAPGKERDFVAAITRSRGTTYYLDSTEGRFTISRDNAKNTMYLQMNSLNPEDTAVYYCAAGRSPGDPSRTYLYEYWGQGTLVTVSS
notes: tagged as tested (anti-Flag detection, IMAC); also called 02C10
binding ELISA (OD 450 nm) [1]: 1.63 OD 450 nm
Human AlphaLISA % inhibition [2]: 100%
Human AlphaLISA IC50 [2]: 0.45 nM
FRET assay % inh, periplasmic extract [3]: 90%
FRET assay vi (U/min), periplasmic extract [3]: 2 U/min

The next lines start with the values.

Human AlphaLISA % inhibition [2]: 100%
Human AlphaLISA IC50 [2]: 0.97 nM
FRET assay % inh, periplasmic extract [3]: 111%
FRET assay vi (U/min), periplasmic extract [3]: -2 U/min
B2: Nanobody 9D10 (VHH)
VHH: EVQLVESGGGLVQAGGSLRLSCAASGRALSSSIMGWFRQAPGKEREFVAAITWSGGRAYYADVSDFEKGRFTISRDNGKNTVNLQMKGLKPEDTAVYYCAAALAIPVTMSPHEYPYWGQGTLVTVSS

Human AlphaLISA % inhibition [2]: 100%
Human AlphaLISA IC50 [2]: 0.32 nM
FRET assay % inh, periplasmic extract [3]: 113%
FRET assay vi (U/min), periplasmic extract [3]: -3 U/min
B5: Nanobody 9A05 (VHH)
VHH: EVQLVESGGGFVQAGGSLRLSCAASRRTISSGTMGWFRQAPGKEREFVAAIRWSSGITFYPDSVEGRFTISGDNAKNTVSLQMNSLKPEDTAVYYCAADRSALRDPSFEVNYEYWGRGTLVTVSS

binding ELISA (OD 450 nm) [1]: 2.56 OD 450 nm
FRET assay % inh, periplasmic extract [3]: 8%
FRET assay vi (U/min), periplasmic extract [3]: 19 U/min
B6: Nanobody 3F04 (VHH)
VHH: EVQLVESGGGSVQAGGSLRLSCVASGRYPMAWFRQAPGKEREFVAGVSWGGDRTYYADSVQGRFTVSRDYAKNTLYLQMNSLKPEDAAVYYCAGDPWGRLFRVKDNYSDWGQGTLVTVSS
notes: tagged as tested (anti-Flag detection, IMAC); also called 03F04

Human AlphaLISA % inhibition [2]: 100%
Human AlphaLISA IC50 [2]: 2.2 nM
FRET assay % inh, periplasmic extract [3]: 99%
FRET assay vi (U/min), periplasmic extract [3]: 0 U/min
B7: Nanobody 13E02 (VHH)
VHH: EVQLVESGGGLVQAGGSLRLSCVASGSIFSIDAMGWYRQAPGKERELVASVTTGASPNYGDSVTGRFTASRDRAKNALYLQMNSLKPEDTAVYYCNLIMTIPGGSQIMYWGQGTLVTVSS

Human AlphaLISA % inhibition [2]: 100%
Human AlphaLISA IC50 [2]: 2.6 nM
FRET assay % inh, periplasmic extract [3]: 102%
FRET assay vi (U/min), periplasmic extract [3]: 0 U/min
B8: Nanobody 9D09 (VHH)
VHH: EVQLVESGGGLVQAGGSLRLSCAASGLTFSSYTMGWFRQAPGQEREFVSAISWNTFTTYYVDSVKDRFTVSRDNAKNTLYLRMNSLKPEDTAVYYCAAAGGSPRQHEPYEYRVWGQGTLVTVSS
